These results are taken from IntAct's records for PubMed 15890343.

In the experiment the target is otx2_mouse Otx2 (UniProt P80206).
Chain of otx2_mouse Otx2 (P80206 whole entry): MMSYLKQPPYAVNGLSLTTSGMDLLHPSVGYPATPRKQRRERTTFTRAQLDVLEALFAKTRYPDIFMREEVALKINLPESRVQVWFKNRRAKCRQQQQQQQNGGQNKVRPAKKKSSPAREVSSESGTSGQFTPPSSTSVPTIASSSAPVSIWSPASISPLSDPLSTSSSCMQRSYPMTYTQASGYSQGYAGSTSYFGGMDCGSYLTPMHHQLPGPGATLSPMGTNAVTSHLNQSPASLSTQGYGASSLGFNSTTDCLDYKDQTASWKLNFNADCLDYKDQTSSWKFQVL

Chain of Diencephalon/mesencephalon homeobox protein 1 (Mus musculus), Q91ZK4 R122W (Q91ZK4 whole entry R122W): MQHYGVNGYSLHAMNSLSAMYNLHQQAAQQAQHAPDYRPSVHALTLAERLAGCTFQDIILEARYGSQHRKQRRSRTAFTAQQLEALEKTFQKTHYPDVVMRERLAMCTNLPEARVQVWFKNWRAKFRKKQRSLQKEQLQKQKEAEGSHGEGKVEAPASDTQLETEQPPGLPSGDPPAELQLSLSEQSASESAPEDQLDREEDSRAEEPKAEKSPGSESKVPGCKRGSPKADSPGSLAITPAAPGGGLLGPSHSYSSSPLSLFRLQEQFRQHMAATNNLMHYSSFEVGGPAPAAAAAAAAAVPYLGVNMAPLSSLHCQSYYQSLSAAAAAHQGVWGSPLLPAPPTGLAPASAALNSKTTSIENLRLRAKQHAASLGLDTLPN

Consider “Diencephalon/mesencephalon homeobox protein 1 (Mus musculus), Q91ZK4 R122W”, for which the “effect of a mutation on the interaction” value is “disrupting interaction”.
